Publication PMC4824898 (2016)

Target: rabbit skeletal muscle actin (Oryctolagus cuniculus (Rabbit), UniProt P68135)
Assay: actin co-sedimentation; polymerised (filamentous) actin

B1: actin-binding domain (ABD) of S. pombe α-actinin (protein)
chain: MQANQWQSVQNRTFTKWFNTKLSSRDLPSVFDLRKDLSDGILLIQLLEIIGDENLGRYNRNPRMRVHRLENVNKALEYIKSKGMPLTNIGPADIVDGNLKLILGLIWTLILRFTIADINEEGLTAKEGLLLWCQRKTANYHPEVDVQDFTRSWTNGLAFCALIHQHRPDLLDYNKLDKKNHRANMQLAFDIAQKSIGIPRLIEVEDVCDVDRPDERSIMTYVAEYFHAFSTLDK
Question: Does B1 bind?
Answer: no binding
